{"source": "the nanobody polyreactivity screen of Harvey et al. (2022)", "data": [{"experiment": "yeast display, Sf9 membrane polyspecificity reagent, FACS + sequencing; frameworks hold sequencing errors", "procedure,_shortened": "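Nanobodies came from a synthetic yeast display library in Saccharomyces cerevisiae BJ5465, induced with galactose for 36–48 hours and stained for 1 hour at 4 °C with 10% biotinylated, detergent-solubilized Sf9 membrane reagent. Cells were enriched on streptavidin microbeads and then FACS-sorted, with low and high (top ~1%) gates set on anti-HA fluorescence for expression and streptavidin fluorescence for reagent binding. Each polyreactivity label reflects the gate a clone came from. Genes were amplified by colony PCR, sequenced by MiSeq 2 × 250 and filtered by CDR length.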", "values": [{"sequence": "QVQLVESGGGLVQAGGSLRLSCAASGYIFPTNAMGWYRQAPGKERELVAVITSGGSTYYADSVKGRFTISRDNAKNTVYLQMNSLKPEDNAVYYCAARYPGRYGIYRVLYGYWGQGTQVTVSS", "polyreactivity (PSR sort gate)": "high polyreactivity"}, {"sequence": "QVQLVESGGGLVQAGGSRRLSCAASGSTFYPYAMGWYRQAPGKERELVAAITWSGGRTYYADSVKGRFTISRDNAKNTVYLQMNSLKPEDTAVYYCAADRPDRWVDYWGQGTQVTVSS", "polyreactivity (PSR sort gate)": "low polyreactivity"}, {"sequence": "QVQLVESGGGLVQAGGSLRLSCAASGRTFYRNDRGWYRQAPGKERELVAAITSSGGTTYADSVKGRFTISRDNAKNTVYLQMNSLKPEDTAVYYCNTVLYAYWQWDYEFDYWGQGTQVTVSS", "polyreactivity (PSR sort gate)": "low polyreactivity"}, {"sequence": "QVQLVESGGGLVQSGGSLRLSCAASGRIFVYYAMGWYIQAPGKEMELVAAIDGSDGTTYYADSVKGRFTISRDNAKNTVYLQMNSLKPEDTSVYYCAKDNSLPDYDYWGQGTQVTVSS", "polyreactivity (PSR sort gate)": "low polyreactivity"}, {"sequence": "QVQLVESGGALVQAGGSLRLSCAASGFIFHYYAMGWYRQAPGKERELVAAISKTGGSTYYADSVKGRFTISRDNAKNTVYLQMNSLKPEDTAVYYCAVARSAYYRGNHWGQGTQVTVSS", "polyreactivity (PSR sort gate)": "high polyreactivity"}, {"sequence": "QVQLVESGGGLVQAGGSLRLSCAASGSTSQRNAMGWYRQAPGKERELVAAISRSGGSTSYADSVKGRFTISRDNAKNTVYLQMNSLKPEDTAVYYCNTDRRIYRVWYNYWGQGTQVTVSS", "polyreactivity (PSR sort gate)": "high polyreactivity"}, {"sequence": "QVHLVESGGGLVQAGGSLRLSCASSGTTFRYYAMGCYRQAPGKERELVAAITYRGGRTYYADSVKGRFTISRDNPKNTVYLQMNSLKPEDTAVYYCAGKSGGDSMDSWGQGTQVTVSS", "polyreactivity (PSR sort gate)": "low polyreactivity"}, {"sequence": "QVQLVESGGGLVQAGGSLRLSCAASGSIFRVYAMGWYRQAPGKERELVASISRRGGSTYYADSVKGRFTISRDNAKKTVYLQMNSLKPEETAVYYFAAEFVIGGHGYDYWGQGTQVTVSS", "polyreactivity (PSR sort gate)": "high polyreactivity"}, {"sequence": "QVQLVESGGGLVQAGGSLRLSCAASGFTYRWYAMGWYRQAPGKETELVAAISWDGGSTYYADSVKGRFTISRDNAKNTVYLQMNSLKPEDTAVYFCATVKSLRYWWQNEYGYWGQGTQVTVSS", "polyreactivity (PSR sort gate)": "high polyreactivity"}, {"sequence": "QVQLVESGGGLVQAGGSLRLSCAASGSILRTYTMGWYRQAPGKERELVAAISSSGGRTYYADSVKGRFTISRDNAKNTVYLQMNSLKPEDTAVYYCNAGGYRYRSYDYWGQGTQVTVSS", "polyreactivity (PSR sort gate)": "high polyreactivity"}, {"sequence": "QVQLVESGGGLVHAGGSLRLSCAASGLTFDWYTMGWYRQAPGKERELVATINSGGSTDYADSVKGRFTISRDNAKNTVYLQMNSLKPEDTAVYYCNAEYGYSGVGDDYWGQGTQVTVSS", "polyreactivity (PSR sort gate)": "low polyreactivity"}, {"sequence": "QVQLVESGGGLVQAGGSLRLSCDASGSIFYGYAMGWYRQAPGKERELVASITGSGGSTSYADSVKGRFTISRDNAKKTVYLQMNSLKPEDTAVYYCNTVLLQLYKLASGFDYWGQGTQVTVSS", "polyreactivity (PSR sort gate)": "high polyreactivity"}, {"sequence": "QVQLVQSAAGLVHAGGSLRLSCAASGIIFYGYAMVSYRQAPGKERELVAAITSYDGSTYYADSVKGRFTISRDNAKNTVYLQMNSLKPEDTAEYYCAADYSTYEGWYWFDYWGQGSQVTVSS", "polyreactivity (PSR sort gate)": "high polyreactivity"}, {"sequence": "QVQLVESGGGLVQAGGSHRLSCAASGITFRRYAMGWYRQAPGKERELVARITDRGSTYYADSVKGRFTSSRDNAKNTVYLQMNSLKPEDTAVYYCAARGYRGLVQLRYGYWGQGTQVTVSS", "polyreactivity (PSR sort gate)": "high polyreactivity"}, {"sequence": "QVQLVESGGGLVQAGGSLRLSCAASGSTFYYYTMGWYRQAPGKEREFVADITNRGGSTYYADSVKGRFTISRDNAKNTVYLQMNSLKPEDTAVYYCAARFSPWYWAGDYDYWGQGTQVTVSS", "polyreactivity (PSR sort gate)": "high polyreactivity"}, {"sequence": "QVQLVESGGGLVQAGGSLRLICAASGSTFGPYSMGWYRQAPGKERELVAAIDQISSSTHYADSVKGRFTISRDNAKNTVYLQMNSLKPEDTAVYYCNADEFRYGYFPHYDYWGQGTQVTVSS", "polyreactivity (PSR sort gate)": "low polyreactivity"}, {"sequence": "QVQLVESGGGLVQAGGSLRLICAASGRTLAPNAMGWYRQAPGKERELVATITRGGTTNYADSVKGRFTISRDNAKNTVYLQMNSLKPEDTAVYYCAKAHYLGYYQRYDYWGQGTQVTVSS", "polyreactivity (PSR sort gate)": "low polyreactivity"}, {"sequence": "QVQLVESGGGLVQAGGSHRLSCPASGLTFYSNAMGWYRQSPGKERELVASISYRGGITYYADSLKGRFTISRDNAKNTVYLQMNSLKPEDTAVYYGAAGRKGSMYYWGQGTQVTVSS", "polyreactivity (PSR sort gate)": "high polyreactivity"}, {"sequence": "QVQIVESGGGLVQAGGSLRLSCAASGFIIGKYTMGWYRQAPGKEREFVAAIRRSGASTYYADSVKGRFTISRDNAKNTVYLQMNSLKPEDTAVYYCSQAGYSPVYGYWGQGTQVTVSS", "polyreactivity (PSR sort gate)": "high polyreactivity"}, {"sequence": "QVQLVESGGGLVHAGGSLRLSCAASGRTLGGYAMGWYRQAPGKERELVAAISWNGGSTYYADSVKVRFTISRDNAKNTVYFQMNCLKPEDSAVYYCARVYSGPKAGAYDYWGQGTQVTVSS", "polyreactivity (PSR sort gate)": "high polyreactivity"}, {"sequence": "QVQLVESGGGLVQAGGSLRLSSAASGSTFQFYAMGWYRQAPGKERELVADITSGDDTNYADSVKGRFTISRDNAKNTVYLQMNSLKPEDTAVYYCAVEYILFYTRVRSYWFDYWGQGTQVTVSS", "polyreactivity (PSR sort gate)": "low polyreactivity"}]}]}
